# According to patent publication US20100196385A1:
# B1: 20G8 (antibody, IgG4, V domains shown)
# VH: QVQLVQSGAEVKKPGASVKVSCKASGYTFTSYGISWVRQAPGQGLEWMGWISVYNGNTNYAQKLQGRVTMTTDTSTSTAYMEVRSLRSDDTAVYYCARDRVPRIPRTTEAFDIWGRGTMVTVCS
# VL: QSVLTQPPSASGTPGQRVTISCSGSSSNIGSYYVYWYQQLPGTAPKLLIYRDNQRPSGVPDRFSGSKSGTSASLAIRGLRSDDEADYYCAAWDDSLSGHWVFGGGTKLTVL
# B2: 1D4 (antibody, IgG4, V domains shown)
# VH: QLQLQESGPGLVKPSETLSLTCTVSGGSISSSSYYWGWIRQPPGKGLEWIGSFYYSRSTYYNPSLKSRVTISVDTSKNQFSLKLSSVTAADTAVHYCARGSIAVPDAFDIWGQGTMVTVSS
# VL: SYELTQPPSVSVSPGQTASITCSGDKLGDKFACWYQQKPGHSPVLVVYQDNKRPSGIPERFSGSNSGNSATLTISGTQAMDEADYYCQAWDSNTAVFGGGTKLTVL
# B3: 4B3 (antibody, IgG4, V domains shown)
# VH: QVQLVQSGAEVRKSGASVKVSCKASGYSFTTYDINWVRQATGQGLEWMGWMNPNSGYTDYAQKFQGRVTLTRNMSIDTAYMELSSLRSEDTAVYYCARAYYYDSSAYYLFDYWGQGTLVTVSS
# VL: DIQMTQSPSSLSASVGDRVTITCRASQGISNYLAWFQQKPGKAPKSLIYAASSLQSGVPSKFSGSGSGTDFTLTISSLQPEDFATYFCQQYISYPLTFGGGTKVEI
# B4: 3A7 (antibody, IgG4, V domains shown)
# VH: EVQVVESGGGLVQPGGSLRLSCEASGFTFSNYWMIWVRQAPGKGLEWVASIKEDGSEKYYVDSVKGRFTISRDNAKSSLYLQMNSLRAEDTAVYYCVRDWELRGHYYYHGMDVWGQGTTVTVSS
# VL: DIQMTQSPSSLSASVGDRVTITCRASLDIRNDLGWFLQKPGKAPKRLIYAASSLQSGVPSRFSGSGSGTEFTLTINSLQPEDFATYYCLQHRNYPFTFGPGTKVDFK
# B5: 9G8 (antibody, IgG4, V domains shown)
# VH: QLQLQESGPGLVKPSETLSLSCTVSGGSISSSSSYWGLIRQPPGKGLEWIGSIYYSGSTYYSPSLKSRVSISVDTSKNQFSLKLSSVTAADTAVYFCARQGYGGHPDVFDIWGQGTMVTVSS
# VL: SSELTQSPSVSVSPGQTARITCSGDKLGDVYVCWYQQKTGQSPVLVIYEDTKRPSGIPERFSGSNSGNTATLTISGTQVMDEADYYCQAWDSTTAVIFGGGTKLTVL
# B6: 4B4 (antibody, IgG4, V domains shown)
# VH: QVLLIQSGAEVKKPGASVQVSCKASGYTFTNYGVIWVRQAPGQGLEYMGWISAYNGNTNYAQKLQDRVTMTSDTSTTTAYMELRSLRSDDTAVYYCARELGSSFDYWGQGTLVTVSS
# VL: SYELTQPPSVSVSPGQTARITCSGDALPKKYAYWYQQKSGQAPVLVIYEDIKRPSGIPERFSGSSSGTMATLTISGAQVEDEADYYCFSTDNSGDHSVFGGGTKLTVL
# B7: 2H10 (antibody, IgG4, V domains shown)
# VH: QVQLVESGGGVVQPGRSLRLSCAASGFTFSRHGMHWVRQAPGKGLEWVAVVWFDGSNIYYADSVKGRFTISRDNSKNTLYLQMNSLRAEDTAMYYCARDSRIAAADYWGQGTLVTVSS
# VL: SYELTQPPSVSVSPGQTVSITCSGDKLGDKYVCWYQQKPGQSPVLVIYQESKRPSGIPERFSGSSSGNTATLTISGTQAMDEADYYCQTWDSSLVVFGGGTKLTVL
# B8: 12A1 (antibody, IgG4, V domains shown)
# VH: QVQLVQSGAEVKRPGASVKVSCKASGYTFTSYGITWVRQAPGQGLEYMGWISTYNGNTDYAQKFQGRVTMTADISTSTAYMELRSLRSDDTAVYYCARERGSYFDYWGQGTLVTVSS
# VL: SYELTQPPSVSVSPGQTARITCSGDTLPKKYAYWYQQKSGQAPVLVIYEDIKRPSGIPERFSGSSSGTMATLTISGAQVEDEADYYCFSTDSGGNHKFGGGTKLTVL
# B9: 17F3 (antibody, IgG2, V domains shown)
# VH: QVQLVQSGAEVKKPGASVKVSCKASGYTFTNYGISWVRQAPGQGLEWMGWINAYNGNTNYAQNLQGRVTMTTDTSTNTAYMELRSLRSDDTAVYYCARVAPAAFFDYWDQGTLVTVSS
# VL: SYELTQPPSVSVSPGQTASITCSGDKLGDKYVCWYQQKPGQSPVLVIYQDNKRPSGIPERFSGSNSGNTATLIISGTQAMDEADYYCQAWDSSTVFGGGTKLTVL
# B10: 4B4 IgG1 (antibody, V domains shown)
# VH: B6 VH
# VL: B6 VL
# Biological target: DLL4 extracellular domain (R&D systems, catalog #1506-D4/CF) (UniProt Q9NR61)
# Sequence (Q9NR61 27-529 limits assumed): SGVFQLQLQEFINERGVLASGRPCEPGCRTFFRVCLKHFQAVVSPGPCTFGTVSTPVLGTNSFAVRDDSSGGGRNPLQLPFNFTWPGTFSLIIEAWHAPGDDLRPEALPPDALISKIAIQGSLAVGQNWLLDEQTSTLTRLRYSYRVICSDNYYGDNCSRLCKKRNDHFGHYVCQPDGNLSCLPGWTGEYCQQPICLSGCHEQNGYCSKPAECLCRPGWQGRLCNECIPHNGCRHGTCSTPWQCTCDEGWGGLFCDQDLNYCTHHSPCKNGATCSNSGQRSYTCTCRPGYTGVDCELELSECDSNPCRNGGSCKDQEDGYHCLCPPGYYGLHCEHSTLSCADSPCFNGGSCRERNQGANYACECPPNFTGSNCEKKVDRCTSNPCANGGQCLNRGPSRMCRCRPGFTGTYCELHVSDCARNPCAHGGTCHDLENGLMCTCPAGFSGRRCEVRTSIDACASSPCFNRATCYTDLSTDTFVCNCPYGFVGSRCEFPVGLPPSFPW
# Experiment: cell-based or functional assay
"% inhibition 1 µg/ml, AVERAGE (HUVEC proliferation on coated DLL4) [%]","% inhibition 1 µg/ml, N = 1 (HUVEC proliferation on coated DLL4) [%]","% inhibition 1 µg/ml, N = 2 (HUVEC proliferation on coated DLL4) [%]","% inhibition 10 µg/ml, AVERAGE (HUVEC proliferation on coated DLL4) [%]","% inhibition 10 µg/ml, N = 1 (HUVEC proliferation on coated DLL4) [%]","% inhibition 10 µg/ml, N = 2 (HUVEC proliferation on coated DLL4) [%]",Binder
85,94,75,98,103,93,B1

# Biological target: full length cynomolgus monkey DLL4 (cynomolgus monkey)
# Experiment: FMAT, hybridoma supernatant, 293T cells with cynomolgus DLL4
Count,FL1,FL1 x count,Binder
103,11700,1.21e+06,B2
97,12600,1.22e+06,B3
121,9960,1.2e+06,B4
120,11700,1.41e+06,B5
117,12300,1.04e+09,B6
103,13100,1.35e+06,B7
106,12900,1.37e+06,B8
128,11200,1.44e+06,B1
120,10700,1.29e+06,B9

# Biological target: full length cynomolgus monkey DLL4 (cynomolgus monkey)
# Experiment: FACS titration, HEK293 cells with cynomolgus DLL4
row,Kd [nM],Binder
1,0.081,B10

# Biological target: full length cynomolgus monkey DLL4 (cynomolgus monkey)
# Experiment: FACS competition vs Notch1/Fc, HEK293 cells with cynomolgus DLL4
row,IC50 [nM],Binder
1,0.5,B10
